Assay results: publication PMC7612376, “Structural basis of meiotic chromosome synaptic elongation through hierarchical fibrous assembly of SYCE2-TEX12” (Nature structural & molecular biology, 2021)
Residue numbers refer to the chain shown, from its start. Names and notes keep the numbering of the source.

B1: SYCE2-TEX12 full-length wild-type, 2:2 building block (complex, human)
chain 1: MERQGVDVPHVKCKDQEPQPLGESKEHPRWEENCEEEAGGGPASASCQLTVLEGKSGLYFSSLDSSIDILQKRAQELIENINKSRQKDHALMTNFRNSLKTKVSDLTEKLEERIYQIYNDHNKIIQEKLQEFTQKMAKISHLETELKQVCHSVETVYKDLCLQPEQSLRLRWGPDHSRGKSPPRPGNSQPPDVFVSSVAETTSQATASEVQTNRDGEC
chain 2: MMANHLVKPDNRNCKRPRELESPVPDSPQLSSLGKSDSSFSEISGLFYKDEALEKDLNDVSKEINLMLSTYAKLLSERAAVDASYIDEIDELFKEANAIENFLIQKREFLRQRFTVIANTLHR
notes: SYCE2, human, full-length, residues 1-218; TEX12, human, full-length, residues 1-123; m2 + m9; also called full-length SYCE2-TEX12; source: E. coli BL21 (DE3), co-expressed, purified (Ni-NTA, amylose, ion exchange, SEC); not shown: MBP, N-terminal, cleaved; His6, N-terminal, cleaved; copies: 2 + 2
B2: SYCE2-TEX12 full-length FFV (TEX12 F102A F109A V116A), 2:2 building block (complex, human)
chain 1: B1 chain 1
chain 2: B1 chain 2 with F102A, F109A, V116A
notes: SYCE2, human, full-length, residues 1-218; TEX12, human, full-length, residues 1-123, with F102A, F109A and V116A; m2 + m14; source: E. coli BL21 (DE3), co-expressed, purified (Ni-NTA, amylose, ion exchange, SEC); not shown: MBP, N-terminal, cleaved; His6, N-terminal, cleaved; copies: 2 + 2
B3: SYCE2-TEX12 core wild-type, 2:2 building block (complex, human)
chain 1: GLYFSSLDSSIDILQKRAQELIENINKSRQKDHALMTNFRNSLKTKVSDLTEKLEERIYQIYNDHNKIIQEKLQEFTQKMAKISHLETELKQVCHSVETVYKDLCLQPE
chain 2: KDEALEKDLNDVSKEINLMLSTYAKLLSERAAVDASYIDEIDELFKEANAIENFLIQKREFLRQRFTVIANTLHR
notes: SYCE2, human, core, residues 57-165; TEX12, human, core, residues 49-123; in solution it is found as 4:4 complex and larger assemblies, which are the rows of this molecule with itself; also called core complex; wild-type core; source: E. coli BL21 (DE3), co-expressed, purified (Ni-NTA, amylose, ion exchange, SEC); not shown: MBP, N-terminal, cleaved; His6, N-terminal, cleaved; copies: 2 + 2
B4: SYCE2-TEX12 core wild-type MBP-fusion, 2:2 building block (complex, human)
chain 1: B3 chain 1
chain 2: B3 chain 2
notes: SYCE2, human, core, residues 57-165; TEX12, human, core, residues 49-123; m6 + m16; found as a 4:4 complex in solution; also called SYCE2-TEX12 core MBP-fusion wild-type; source: E. coli BL21 (DE3), co-expressed, purified; not shown: MBP, N-terminal, kept; copies: 2 + 2
B5: SYCE2-TEX12 core H89E/Y115E, 2:2 building block (complex, human)
chain 1: B3 chain 1 with H33E, Y59E
chain 2: B3 chain 2
notes: SYCE2, human, core, residues 57-165, with H89E and Y115E; TEX12, human, core, residues 49-123; m4 + m8; also called H89E Y115E mutation; source: E. coli BL21 (DE3), co-expressed, purified (Ni-NTA, amylose, ion exchange, SEC); not shown: MBP, N-terminal, cleaved; His6, N-terminal, cleaved; copies: 2 + 2
B6: SYCE2-TEX12 core ΔS2C/ΔCtip 2:2 complex (complex, human)
chain 1: GLYFSSLDSSIDILQKRAQELIENINKSRQKDHALMTNFRNSLKTKVSDLTEKLEERIYQIYNDHNKIIQEKLQEFTQKMAKISHLETELKQVCHSVE
chain 2: KDEALEKDLNDVSKEINLMLSTYAKLLSERAAVDASYIDEIDELFKEANAIENFLIQKREFLRQR
notes: SYCE2, human, ΔS2C, residues 57-154; TEX12, human, core ΔCtip, residues 49-113; m3 + m10; also called ΔS2C/ΔCtip core complex; source: E. coli BL21 (DE3), co-expressed, purified (Ni-NTA, amylose, ion exchange, SEC); not shown: MBP, N-terminal, cleaved; His6, N-terminal, cleaved; copies: 2 + 2

Target: the molecule itself
Assay: SEC-MALS; co-purified complexes at >1 mg/ml on Superdex 200 Increase 10/300 GL in 20 mM Tris pH 8.0, 150 mM KCl, 2 mM DTT; in Fig. 1 core at 200 uM and full-length at 100 uM (4 mg/ml)

Protein	percent of total mass as 2:2 complex (not self-associated) [%]	percent of total mass as 4:4 complex [%]	stoichiometry N
B1	12	18	2 2:2 building blocks
B2	15	20	2 2:2 building blocks
B3		75	2 2:2 building blocks
B4			2 2:2 building blocks
B5	60	40	2 2:2 building blocks
B6	86	14	2 2:2 building blocks
